Here are results for nine molecules from paper PMC8298264, “Function of cofactor Akirin2 in the regulation of gene expression in model human neutrophil-like HL60 cells” (Bioscience Reports, 2021).

This test concerns human HL60 cells. Kind of test: SWATH-MS proteomics, differential protein representation, akirin2 KO vs WT HL60 cells. The settings on record: akirin2 KO vs WT HL60 cells, sheet "Under-represented in KO". It counts as cell-based. A digest of the protocol: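 Read-out is label-free SWATH-MS protein area, globally normalized to total detected-protein area, with identifications held at 1% FDR against a library from information-dependent acquisition.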

B1: sp¦P26639¦SYTC_HUMAN (protein, UniProt P26639 1-723, looked up)
Threonine--tRNA ligase 1, …: MFEEKASSPSGKMGGEEKPIGAGEEKQKEGGKKKNKEGSGDGGRAELNPWPEYIYTRLEMYNILKAEHDSILAEKAEKDSKPIKVTLPDGKQVDAESWKTTPYQIACGISQGLADNTVIAKVNNVVWDLDRPLEEDCTLELLKFEDEEAQAVYWHSSAHIMGEAMERVYGGCLCYGPPIENGFYYDMYLEEGGVSSNDFSSLEALCKKIIKEKQAFERLEVKKETLLAMFKYNKFKCRILNEKVNTPTTTVYRCGPLIDLCRGPHVRHTGKIKALKIHKNSSTYWEGKADMETLQRIYGISFPDPKMLKEWEKFQEEAKNRDHRKIGRDQELYFFHELSPGSCFFLPKGAYIYNALIEFIRSEYRKRGFQEVVTPNIFNSRLWMTSGHWQHYSENMFSFEVEKELFALKPMNCPGHCLMFDHRPRSWRELPLRLADFGVLHRNELSGALTGLTRVRRFQQDDAHIFCAMEQIEDEIKGCLDFLRTVYSVFGFSFKLNLSTRPEKFLGDIEVWDQAEKQLENSLNEFGEKWELNSGDGAFYGPKIDIQIKDAIGRYHQCATIQLDFQLPIRFNLTYVSHDGDDKKRPVIVHRAILGSVERMIAILTENYGGKWPFWLSPRQVMVVPVGPTCDEYAQKVRQQFHDAKFMADIDLDPGCTLNKKIRNAQLAQYNFILVVGEKEKISGTVNIRTRDNKVHGERTISETIERLQQLKEFRSKQAEEEF
Take B1: for the setting “SWATH-MS”, the “Fold Change” value stood at 0.7727 and the “Log (Fold Change)” value is listed as -0.112.

B2: sp¦Q52LJ0¦FA98B_HUMAN (protein, UniProt Q52LJ0 1-433, looked up)
Protein FAM98B: MRGPEPGPQPTMEGDVLDTLEALGYKGPLLEEQALTKAAEGGLSSPEFSELCIWLGSQIKSLCNLEESITSAGRDDLESFQLEISGFLKEMACPYSVLISGDIKDRLKKKEDCLKLLLFLSTELQASQILQNKKHKNSQLDKNSEVYQEVQAMFDTLGIPKSTTSDIPHMLNQVESKVKDILSKVQKNHVGKPLLKMDLNSEQAEQLERINDALSCEYECRRRMLMKRLDVTVQSFGWSDRAKVKTDDIARIYQPKRYALSPKTTITMAHLLAAREDLSKIIRTSSGTSREKTACAINKVLMGRVPDRGGRPNEIEPPPPEMPPWQKRQEGGGGRGGWGGGGGGGGRGGGGGGGGRGGWGGGGGGWGGGGGGGGGWGGGGGGGRGGFQGRGDYGGRGGYGGRGGYGGRGYGDPYGGGGGGGGGGGGGGGYRRY
On to B2, for which, under “SWATH-MS”, the “Fold Change” value is reported as 0.7848 and the “Log (Fold Change)” value is -0.1053.

B3: sp¦O60832¦DKC1_HUMAN (protein, UniProt O60832 2-514, looked up)
H/ACA ribonucleoprotein …: ADAEVIILPKKHKKKKERKSLPEEDVAEIQHAEEFLIKPESKVAKLDTSQWPLLLKNFDKLNVRTTHYTPLACGSNPLKREIGDYIRTGFINLDKPSNPSSHEVVAWIRRILRVEKTGHSGTLDPKVTGCLIVCIERATRLVKSQQSAGKEYVGIVRLHNAIEGGTQLSRALETLTGALFQRPPLIAAVKRQLRVRTIYESKMIEYDPERRLGIFWVSCEAGTYIRTLCVHLGLLLGVGGQMQELRRVRSGVMSEKDHMVTMHDVLDAQWLYDNHKDESYLRRVVYPLEKLLTSHKRLVMKDSAVNAICYGAKIMLPGVLRYEDGIEVNQEIVVITTKGEAICMAIALMTTAVISTCDHGIVAKIKRVIMERDTYPRKWGLGPKASQKKLMIKQGLLDKHGKPTDSTPATWKQEYVDYSESAKKEVVAEVVKAPQVVAEAAKTAKRKRESESESDETPPAAPQLIKKEKKKSKKDKKAKAGLESGAEPGDGDSDTTKKKKKKKKAKEVELVSE
For B3, under “SWATH-MS”, the “Fold Change” value is 0.774 and the “Log (Fold Change)” value was -0.1113.

B4: sp¦O00160¦MYO1F_HUMAN (protein, UniProt O00160 1-1098, looked up)
Unconventional myosin-If: MGSKERFHWQSHNVKQSGVDDMVLLPQITEDAIAANLRKRFMDDYIFTYIGSVLISVNPFKQMPYFTDREIDLYQGAAQYENPPHIYALTDNMYRNMLIDCENQCVIISGESGAGKTVAAKYIMGYISKVSGGGEKVQHVKDIILQSNPLLEAFGNAKTVRNNNSSRFGKYFEIQFSRGGEPDGGKISNFLLEKSRVVMQNENERNFHIYYQLLEGASQEQRQNLGLMTPDYYYYLNQSDTYQVDGTDDRSDFGETLSAMQVIGIPPSIQQLVLQLVAGILHLGNISFCEDGNYARVESVDLLAFPAYLLGIDSGRLQEKLTSRKMDSRWGGRSESINVTLNVEQAAYTRDALAKGLYARLFDFLVEAINRAMQKPQEEYSIGVLDIYGFEIFQKNGFEQFCINFVNEKLQQIFIELTLKAEQEEYVQEGIRWTPIQYFNNKVVCDLIENKLSPPGIMSVLDDVCATMHATGGGADQTLLQKLQAAVGTHEHFNSWSAGFVIHHYAGKVSYDVSGFCERNRDVLFSDLIELMQTSEQAFLRMLFPEKLDGDKKGRPSTAGSKIKKQANDLVATLMRCTPHYIRCIKPNETKRPRDWEENRVKHQVEYLGLKENIRVRRAGFAYRRQFAKFLQRYAILTPETWPRWRGDERQGVQHLLRAVNMEPDQYQMGSTKVFVKNPESLFLLEEVRERKFDGFARTIQKAWRRHVAVRKYEEMREEASNILLNKKERRRNSINRNFVGDYLGLEERPELRQFLGKRERVDFADSVTKYDRRFKPIKRDLILTPKCVYVIGREKVKKGPEKGQVCEVLKKKVDIQALRGVSLSTRQDDFFILQEDAADSFLESVFKTEFVSLLCKRFEEATRRPLPLTFSDTLQFRVKKEGWGGGGTRSVTFSRGFGDLAVLKVGGRTLTVSVGDGLPKSSKPTRKGMAKGKPRRSSQAPTRAAPAPPRGMDRNGVPPSARGGPLPLEIMSGGGTHRPPRGPPSTSLGASRRPRARPPSEHNTEFLNVPDQGMAGMQRKRSVGQRPVPGVGRPKPQPRTHGPRCRALYQYVGQDVDELSFNVNEVIEILMEDPSGWWKGRLHGQEGLFPGNYVEKI
On to B4, for which, where the note is “SWATH-MS”, the “Fold Change” value worked out at 0.7701 and the “Log (Fold Change)” value was -0.1134.

B5: sp¦Q9NPJ3¦ACO13_HUMAN (protein, UniProt Q9NPJ3 1-140, looked up)
Acyl-coenzyme A thioesterase …: MTSMTQSLREVIKAMTKARNFERVLGKITLVSAAPGKVICEMKVEEEHTNAIGTLHGGLTATLVDNISTMALLCTERGAPGVSVDMNITYMSPAKLGEDIVITAHVLKQGKTLAFTSVDLTNKATGKLIAQGRHTKHLGN
Turning to B5, for the setting “SWATH-MS”, the “Fold Change” value was determined as 0.7707 and the “Log (Fold Change)” value is listed as -0.1131.

B6: sp¦P54687¦BCAT1_HUMAN (protein, UniProt P54687 1-386, looked up)
Branched-chain-amino-acid …: MKDCSNGCSAECTGEGGSKEVVGTFKAKDLIVTPATILKEKPDPNNLVFGTVFTDHMLTVEWSSEFGWEKPHIKPLQNLSLHPGSSALHYAVELFEGLKAFRGVDNKIRLFQPNLNMDRMYRSAVRATLPVFDKEELLECIQQLVKLDQEWVPYSTSASLYIRPTFIGTEPSLGVKKPTKALLFVLLSPVGPYFSSGTFNPVSLWANPKYVRAWKGGTGDCKMGGNYGSSLFAQCEAVDNGCQQVLWLYGEDHQITEVGTMNLFLYWINEDGEEELATPPLDGIILPGVTRRCILDLAHQWGEFKVSERYLTMDDLTTALEGNRVREMFGSGTACVVCPVSDILYKGETIHIPTMENGPKLASRILSKLTDIQYGREESDWTIVLS
For the molecule B6, where the note is “SWATH-MS”, the “Fold Change” value was found to be 0.7726 and the “Log (Fold Change)” value is recorded as -0.112.

B7: sp¦P50213¦IDH3A_HUMAN (protein, UniProt P50213 28-366, looked up)
Isocitrate dehydrogenase …: TGGVQTVTLIPGDGIGPEISAAVMKIFDAAKAPIQWEERNVTAIQGPGGKWMIPSEAKESMDKNKMGLKGPLKTPIAAGHPSMNLLLRKTFDLYANVRPCVSIEGYKTPYTDVNIVTIRENTEGEYSGIEHVIVDGVVQSIKLITEGASKRIAEFAFEYARNNHRSNVTAVHKANIMRMSDGLFLQKCREVAESCKDIKFNEMYLDTVCLNMVQDPSQFDVLVMPNLYGDILSDLCAGLIGGLGVTPSGNIGANGVAIFESVHGTAPDIAGKDMANPTALLLSAVMMLRHMGLFDHAARIEAACFATIKDGKSLTKDLGGNAKCSDFTEEICRRVKDLD
For B7, under “SWATH-MS”, the “Fold Change” value is given as 0.7755 and the “Log (Fold Change)” value is -0.1104.

B8: sp¦O95573¦ACSL3_HUMAN (protein, UniProt O95573 1-720, looked up)
Fatty acid CoA ligase Acsl3: MNNHVSSKPSTMKLKHTINPILLYFIHFLISLYTILTYIPFYFFSESRQEKSNRIKAKPVNSKPDSAYRSVNSLDGLASVLYPGCDTLDKVFTYAKNKFKNKRLLGTREVLNEEDEVQPNGKIFKKVILGQYNWLSYEDVFVRAFNFGNGLQMLGQKPKTNIAIFCETRAEWMIAAQACFMYNFQLVTLYATLGGPAIVHALNETEVTNIITSKELLQTKLKDIVSLVPRLRHIITVDGKPPTWSEFPKGIIVHTMAAVEALGAKASMENQPHSKPLPSDIAVIMYTSGSTGLPKGVMISHSNIIAGITGMAERIPELGEEDVYIGYLPLAHVLELSAELVCLSHGCRIGYSSPQTLADQSSKIKKGSKGDTSMLKPTLMAAVPEIMDRIYKNVMNKVSEMSSFQRNLFILAYNYKMEQISKGRNTPLCDSFVFRKVRSLLGGNIRLLLCGGAPLSATTQRFMNICFCCPVGQGYGLTESAGAGTISEVWDYNTGRVGAPLVCCEIKLKNWEEGGYFNTDKPHPRGEILIGGQSVTMGYYKNEAKTKADFFEDENGQRWLCTGDIGEFEPDGCLKIIDRKKDLVKLQAGEYVSLGKVEAALKNLPLVDNICAYANSYHSYVIGFVVPNQKELTELARKKGLKGTWEELCNSCEMENEVLKVLSEAAISASLEKFEIPVKIRLSPEPWTPETGLVTDAFKLKRKELKTHYQADIERMYGRK
For B8, the “Fold Change” value is 0.3507 and the “Log (Fold Change)” value is reported as -0.4551.

B9: sp¦Q9BVP2¦GNL3_HUMAN (protein, UniProt Q9BVP2 1-549, looked up)
Guanine nucleotide-binding …: MKRPKLKKASKRMTCHKRYKIQKKVREHHRKLRKEAKKRGHKKPRKDPGVPNSAPFKEALLREAELRKQRLEELKQQQKLDRQKELEKKRKLETNPDIKPSNVEPMEKEFGLCKTENKAKSGKQNSKKLYCQELKKVIEASDVVLEVLDARDPLGCRCPQVEEAIVQSGQKKLVLILNKSDLVPKENLESWLNYLKKELPTVVFRASTKPKDKGKITKRVKAKKNAAPFRSEVCFGKEGLWKLLGGFQETCSKAIRVGVIGFPNVGKSSIINSLKQEQMCNVGVSMGLTRSMQVVPLDKQITIIDSPSFIVSPLNSSSALALRSPASIEVVKPMEAASAILSQADARQVVLKYTVPGYRNSLEFFTVLAQRRGMHQKGGIPNVEGAAKLLWSEWTGASLAYYCHPPTSWTPPPYFNESIVVDMKSGFNLEELEKNNAQSIRAIKGPHLANSILFQSSGLTNGIIEEKDIHEELPKRKERKQEEREDDKDSDQETVDEEVDENSSGMFAAEETGEALSEETTAGEQSTRSFILDKIIEEDDAYDFSTDYV
For the molecule B9, where the note is “SWATH-MS”, the “Fold Change” value is on record as 0.7833 and the “Log (Fold Change)” value is -0.1061.
